In patent publication US20250346904A1, “CCR5 and CD4 siRNA-TARGETED PHOSPHOLIPID NANOSOMES THERAPEUTICS FOR TREATMENT OF HIV-1 AND OTHER DISEASES” (priority 2024, published 2025):

Legend:
[1] = tested on: HIV-1RF virus (NIH ARP Cat #2804, dual-tropic); test: Knockdown by BFU assay on P4/R5 cells, HIV-1RF, log dilutions (RNA-I-47); format: cell-based; settings: Human immunodeficiency virus 1, P4/R5, each drug as part of the Raltegravir + Efavirenz cocktail, read-out: Inhibitory Dose 50 (ID50) of the cocktail
Procedure: MAGI P4/R5 cells carry the β-galactosidase gene under control of the HIV LTRs (Long Terminal Repeats). […] Briefly, 96 well plates of MAGI P4/R5 cells were infected with HIV-1 and fixed 2-3 days post infection with a fixative containing 1% formaldehyde and 0.2% glutaraldehyde. Fixed cells were washed with PBS (Phosphate Buffered Saline) and stained for β-galactosidase activity using X-gal at 1 mg/mL in PBS with 5 mM potassium ferricyanide and 5 mM potassium ferrocyanide as per published procedures. The cells were usually stained 3 hours to overnight, the number of blue foci counted under the microscope and reported as Blue Focus-forming Units (BFUs).
In this study (RNA-I-47), 8 siRNA nanosomal formulations and 2 controls were evaluated for HIV-1 inhibition on P4/R5 cells using the BFU assay. The test formulations were the same 3 CD4_siRNAs, 3 CCR5_siRNAs, RANTES protein alone and RANTES protein co-encapsulated with a CCR5_siRNA in phospholipid nanosomes, tested previously in RNA-I-50b and RNA-I-51. The HIV-1 virus used was NIH ARP Cat #2804, a member of a panel HIV-1RF viruses and is dual-tropic with the ability to infect both CCR5 and CXCR4 receptor expressing cells.
This study was similar to the previous studies with a few differences. […]

HIV-1 RF, NIH Cat #2804 = test: Knockdown by BFU assay, HIV-1 RF, with and without lipofectamine (RNA-I-61); format: cell-based; settings: Naked (unencapsulated), Presence of Lipofectamine
Procedure: A knockdown study (RNA-I-61) of the 8 nanoencapsulated and the corresponding unencapsulated (naked) siRNA preparations along with two controls described in the previous experiments was performed using freshly reconstituted materials with HIV-1 RF, NIH Cat #2804, diluted to contain ˜100 Blue Focus forming Units (BFUs) per dose of inoculum. […] The objective of this experiment was to test a range of concentrations of the inhibitors to determine the ID50 for each preparation based on the siRNA content. Since the nanosomal materials were freshly reconstituted, they were recharacterized.
The reconstituted samples as well as the naked siRNA preparations were tested for virus infection inhibitory activity. The inhibition of infectivity was measured by counting the number of blue foci due to the induced B-galactosidase activity in the host MAGI P4/R5 cells by the infecting HIV. […] The number of BFUs for each treatment at various dilutions were used to calculate the % inhibition from the corresponding dilution for the Negative_siRNA samples. The inhibitor activity was also quantified by measuring the p24 antigen concentration in each of the wells.
Infectivity Assay by BFUs: The percent inhibitions obtained with various Nanosomal_siRNA formulations versus Negative_siRNA formulations in the presence of lipofectamine are listed in Table 12.
50% Inhibitory Dose (ID50) Values: The data from RNA quantification using gel analysis and the infectivity results were used to plot dose response curves and calculate the ID50 (a.k.a. Inhibitory Concentration that results in 50% inhibition, [IC50]) values.

O=C1Nc2ccc(Cl)cc2[C@@](C#CC2CC2)(C(F)(F)F)O1 [Efavirenz]
IC50 [1]: 0.16 nM

B1: RANTES: CCL5, a CC chemokine with a molecular weight of 7,900, natural ligand of CCR5; unencapsulated in Table 13 (protein, UniProt P13501 24-91, looked up)
C-C motif chemokine 5: SPYSSDTTPCCFAYIARPLPRAHIKEYFYTSGKCSNPAVVFVTRKNRQVCANPEKKWVREYINSLEMS
modifications: ends and bridges not checked
Inhibition of BFUs by Naked_siRNA vs Negative_siRNA (HIV-1 RF, NIH Cat #2804; treatment dilution 1): 0%
Inhibition of BFUs by Naked_siRNA vs Negative_siRNA (HIV-1 RF, NIH Cat #2804; treatment dilution 5): 34%
Inhibition of BFUs by Naked_siRNA vs Negative_siRNA (HIV-1 RF, NIH Cat #2804; treatment dilution 15): 18%
Inhibition of BFUs by Naked_siRNA vs Negative_siRNA (HIV-1 RF, NIH Cat #2804; treatment dilution 45): 0%
Inhibition of BFUs by Naked_siRNA vs Negative_siRNA (HIV-1 RF, NIH Cat #2804; treatment dilution 135): 0%
